Results on one molecule are retold here after patent US20230165982A1 (HOBER BIOTECH, published 2023).

In this test the target is Human epidermal growth factor receptor 2 (HER2) (human, UniProt P04626 23-1255). The experiment in a line: cell-based or functional assay.

B1: 99mTc-ADAPT6 (designed binder)
chain: GSSHHHHHHDEAVDANSLAAAKETALYHLDRLGVADAYKDLIDKAKTVEGVKARYFEILHALP
modifications: also: 99mTc(CO)3 chelated by the His6 subsequence (residues 4-9)
Take B1: the “tumor-to-contralateral breast ratio (SPECT), 2 h after injection of 250 µg” value turned out to be 7.8 and the “tumor-to-contralateral breast ratio (SPECT), patient 17 (tumor later found FISH-negative), 2 h after injection of 1000 µg” value was found to be 1.33.
